From PMC8553545

B1: 7N5S oligo (dsDNA)
DNA 1: GGGGCCCCTTCCCCA
DNA 2: CTGGGGAAGGGGCCC
B2: 7N5T oligo (dsDNA)
DNA 1: AGGCCCCTTCCCCAC
DNA 2: TGTGGGGAAGGGGCC

Biological target: ZBTB7A ZF1-4 (370-500) pXC2222 (Homo sapiens, UniProt O95365 370-500)
Assay: X-ray crystallography

Sequence of ZBTB7A ZF1-4 (370-500) pXC2222 (O95365 370-500): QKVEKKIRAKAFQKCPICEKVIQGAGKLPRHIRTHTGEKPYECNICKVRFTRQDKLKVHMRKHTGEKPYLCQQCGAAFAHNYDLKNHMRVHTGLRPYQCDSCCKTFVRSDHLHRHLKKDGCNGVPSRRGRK

Binder | binding result
B1 | binds
B2 | binds
